In patent US9868960B2, “Placental like alkaline phosphatase (PLAP) promoter mediated cell targeting” (priority 2013, dated 2018):
Entries after “also recorded” stand apart in the source; their conditions may differ.

B1: PLAP promoter: human PLAP promoter region −170 to +24 cloned in promoter less luciferase expression vector pGL3 Basic (nucleic acid, listed as Homo sapiens)
DNA: AAGCTGCCTTTCTCAGGACCCCAGCCCCAGCCCAGCCCAGCCACACCCTGCGACTCTCTTCAGCCAGTGTGGCTTCAGGTCAAGAGGCTGGGCGGGGTCAAGGTGGTAACAAGGGGAGGGGCCAGGACACAGTTTTCCCTGATTTAAACCCAGGCAGCCTGGAGTGCAGCTCATACTCCATACCTGGGATTTCCGC
modifications: in pGL3 Basic luciferase vector; DNASequence (1)..(196) Unique PLAP promoter Sequence
notes: human PLAP promoter region −170 to +24 cloned in promoter less luciferase expression vector pGL3 Basic
B2: NFKB−PLAP enhancer-promoter system: tetramer of NFκB DNA binding sites (GGGAATTTCC) upstream of PLAP promoter −170 to +24 in pGL3 Basic luciferase vector (nucleic acid)
DNA: GGGAATTTCCGGGAATTTCCGGGAATTTCCGGGAATTTCCAAGCTGCCTTTCTCAGGACCCCAGCCCCAGCCCAGCCCAGCCACACCCTGCGACTCTCTTCAGCCAGTGTGGCTTCAGGTCAAGAGGCTGGGCGGGGTCAAGGTGGTAACAAGGGGAGGGGCCAGGACACAGTTTTCCCTGATTTAAACCCAGGCAGCCTGGAGTGCAGCTCATACTCCATACCTGGGATTTCCGC
modifications: in pGL3 Basic luciferase vector; Enhancer (NFKB)-Promoter (PLAP) Sequence.

How the values were obtained:
[1] = tested on: HPV-16 enhancer in SiHa cells; test: Chip assay of H3K9me2 and H3K27me3 at the targeted enhancer; format: cell-based; conditions: harvested after 5 days
Experimental: FIG. 13: Elucidating the mechanism of transcriptional gene silencing: (A) SiHa cells untreated or treated with TSA were transfected with NFκB+PLAP enhancer-promoter chimera expressing test & scrambled shRNA and harvested after 5 days. Chip was performed with antibodies against H3K9me2 and H3K27me3; antibodies against RNA polymerase and mouse IgG were respectively used as positive and negative controls for pull down. Input and immuno-precipitated DNA were measured by PCR with requisite primers and the enrichment at enhancer region was further quantified by qPCR.
Using chip assay, we assessed the level of histone H3K9 dimethylation (H3K9me2) and H3K27 trimethylation (H3K27me3), two repressive epigenetic marks shown to increase as a result of TGS.

[2] = tested on: PLAP negative cell lines HepG2 (Hepatoma) & CHO; test: Dual luciferase reporter assay of promoter/enhancer-promoter constructs in PLAP negative cell lines; format: cell-based; conditions: PLAP negative/control cell lines HepG2 & CHO, 48 hours post transfection
Experimental: (§1) All transfections were performed using Lipofectamine™ 2000 transfection reagent according to manufacturer's instruction (Invitrogen). Briefly, (1×10^6/well) cells were cultured in 6-well plates overnight. The luciferase reporter vectors (PLAP-luc, NFκB+PLAP−luc & pG13 Basic; 1 μg well^−1) were co-transfected in 20:1 ratio with Renilla luciferase expression vector (pRL-TK), an internal control for normalisation of the transcriptional activity of the reporter vectors. Forty-eight hours post transfection, the cells were lysed and luciferase activities were assayed using Dual Luciferase Assay reagents (Promega) according to manufacturer's protocol. All transfections were performed in triplicate and all experiments were repeated at least twice.
(§2) The region of PLAP promoter spanning from −170 to +24 containing invariant TATA boxes (nucleotides −31 to −25) & Sp1 binding sites (nucleotides −84 to −76) cloned in promoter less luciferase expression vector PGL3 basic was transfected in battery of PLAP positive cell cervical cell lines (HeLa, SiHa and CaSki) and appropriate PLAP negative cell lines HepG2 (Hepatoma) & CHO. Promoter activity was assayed in these in vitro model systems by dual luciferase assay.
(§3) To develop an optimal enhancer-promoter system for improving the transcriptional activity of PLAP promoter a fusion construct comprising of PLAP promoter & tetramer of NFKB binding sites cloned in PGL3 basic was evaluated by dual luciferase assay in the above mentioned cell lines. Furthermore, we compared the transcriptional activity of PLAP promoter/enhancer systems with strong SV40 virus promoter (PGL3 C).

[3] = tested on: PLAP positive cell lines (HeLa, SiHa, CaSki, Caco-2); test: Dual luciferase reporter assay of promoter/enhancer-promoter constructs in PLAP positive cell lines; format: cell-based, human; conditions: for transcriptional activity (relative luciferase activity over pGL3-Basic): PLAP positive cell lines, 48 hours post transfection, normalised by Renilla; for tissue specificity of luciferase expression: PLAP positive versus PLAP negative cell lines; for tissue specificity of luciferase expression / trend of construct activity (strength): FIG. 6; for trend of construct activity (strength): luciferase reporter constructs
Experimental: as §1, §2, §3

[4] = listed as NFκB+PLAP promoter enhancer systems

Molecule	levels of H3K9me2 and H3K27me3 at the targeted enhancer [1]	transcriptional activity (relative luciferase activity over pGL3-Basic) [2]	transcriptional activity (relative luciferase activity over pGL3-Basic) [3]	tissue specificity of luciferase expression [3]	trend of construct activity (strength) [3]	transcriptional activity (relative luciferase activity over pGL3-Basic) [2, 4]	transcriptional activity (relative luciferase activity over pGL3-Basic) [3, 4]
CC(/C=C/C(=O)NO)=C\[C@@H](C)C(=O)c1ccc(N(C)C)cc1 [trichostatin]	reduced this enrichment	–	–	–	–	–	–
B1	–	little or no activity in the control cell lines; also recorded: not in PLAP negative cell line	of optimum level only in carcinoma cell lines expressing PLAP; also recorded: selective transcriptional activity in all the PLAP positive cell lines	tissue selective expression	NFκB−PLAP Pr>SV40 Pr>PLAP Pr	–	–
B2	–	not in PLAP negative cell line	selective transcriptional activity in all the PLAP positive cell lines; also recorded: highly comparable to that of strong SV40 virus promoter	tissue selective expression	NFκB−PLAP Pr>SV40 Pr>PLAP Pr	little or no activity in the control cell lines	of optimum level only in carcinoma cell lines expressing PLAP
